# Reference: publication PMC9482650, “Quantitative fragmentomics allow affinity mapping of interactomes” (Nature Communications, 2022)
# Biological target: T1, SNTA1, Q13424
# T1 sequence (Q13424 82-180, limits assumed, looked up): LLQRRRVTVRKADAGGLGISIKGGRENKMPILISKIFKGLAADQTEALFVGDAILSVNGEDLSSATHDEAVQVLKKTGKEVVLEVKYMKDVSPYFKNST
# Assay: holdup assay
# Parameters: key: below the threshold = too weak to quantify, mostly under pKd 3.1 to 4
# Details: plain residues with an end cap or a label only (N-terminal biotin on a linker: ado-ado)
row,Binder,pKd
1,"MHIQEKGFHV [EPHA6, Q9UF33]",below the threshold

# Biological target: GRIP2_4, Q9C0E4
# Sequence (Q9C0E4 446-548): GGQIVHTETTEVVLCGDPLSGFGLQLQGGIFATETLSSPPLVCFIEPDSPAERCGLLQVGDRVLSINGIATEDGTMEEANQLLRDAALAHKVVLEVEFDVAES
# Assay: holdup assay
# Parameters: key: below the threshold = too weak to quantify, mostly under pKd 3.1 to 4
# Details: plain residues with an end cap or a label only (N-terminal biotin on a linker: ado-ado)
row,Binder,pKd
1,"MHIQEKGFHV [EPHA6, Q9UF33]",below the threshold

# Biological target: T2, RHPN1, Q8TCX5
# T2 sequence (Q8TCX5 508-602, limits assumed, looked up): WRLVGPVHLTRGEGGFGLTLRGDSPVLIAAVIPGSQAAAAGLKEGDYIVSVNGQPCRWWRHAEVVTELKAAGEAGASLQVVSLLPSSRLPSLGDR
# Assay: holdup assay
# Parameters: key: below the threshold = too weak to quantify, mostly under pKd 3.1 to 4
# Details: plain residues with an end cap or a label only (N-terminal biotin on a linker: ado-ado)
row,Binder,pKd
1,"MHIQEKGFHV [EPHA6, Q9UF33]",below the threshold

# Biological target: T3, CARD11, Q9BXL7
# T3 sequence (Q9BXL7 662-765, limits assumed, looked up): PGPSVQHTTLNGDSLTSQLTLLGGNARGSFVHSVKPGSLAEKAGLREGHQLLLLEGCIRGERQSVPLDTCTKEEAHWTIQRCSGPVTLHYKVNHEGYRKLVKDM
# Assay: holdup assay
# Parameters: key: below the threshold = too weak to quantify, mostly under pKd 3.1 to 4
# Details: plain residues with an end cap or a label only (N-terminal biotin on a linker: ado-ado)
row,Binder,pKd
1,"MHIQEKGFHV [EPHA6, Q9UF33]",below the threshold

# Biological target: MAGI1_1, Q96QZ7
# Sequence (Q96QZ7 1-106): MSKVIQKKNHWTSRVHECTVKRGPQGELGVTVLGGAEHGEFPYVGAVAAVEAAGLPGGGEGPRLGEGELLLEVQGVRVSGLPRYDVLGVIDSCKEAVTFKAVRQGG
# Assay: holdup assay
# Parameters: key: below the threshold = too weak to quantify, mostly under pKd 3.1 to 4
# Details: plain residues with an end cap or a label only (N-terminal biotin on a linker: ado-ado)
row,Binder,pKd
1,"MHIQEKGFHV [EPHA6, Q9UF33]",below the threshold

# Biological target: MAGI2_6, Q86UL8
# Sequence (Q86UL8 1141-1229): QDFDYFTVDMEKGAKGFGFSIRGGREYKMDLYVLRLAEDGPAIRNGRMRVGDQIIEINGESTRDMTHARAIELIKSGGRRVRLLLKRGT
# Assay: holdup assay
# Parameters: key: below the threshold = too weak to quantify, mostly under pKd 3.1 to 4
# Details: plain residues with an end cap or a label only (N-terminal biotin on a linker: ado-ado)
row,Binder,pKd
1,"MHIQEKGFHV [EPHA6, Q9UF33]",below the threshold

# Biological target: T4, MPP7, Q5T2T1
# T4 sequence (Q5T2T1 134-230, limits assumed, looked up): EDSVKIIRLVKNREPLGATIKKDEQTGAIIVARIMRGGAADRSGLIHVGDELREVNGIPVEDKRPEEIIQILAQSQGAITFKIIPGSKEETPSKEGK
# Assay: holdup assay
# Parameters: key: below the threshold = too weak to quantify, mostly under pKd 3.1 to 4
# Details: plain residues with an end cap or a label only (N-terminal biotin on a linker: ado-ado)
row,Binder,pKd
1,"MHIQEKGFHV [EPHA6, Q9UF33]",below the threshold

# Biological target: T5, FRMPD1, Q5SYB0
# T5 sequence (Q5SYB0 52-145, limits assumed, looked up): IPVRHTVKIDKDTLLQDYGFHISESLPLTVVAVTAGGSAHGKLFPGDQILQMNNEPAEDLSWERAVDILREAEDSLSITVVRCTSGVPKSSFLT
# Assay: holdup assay
# Parameters: key: below the threshold = too weak to quantify, mostly under pKd 3.1 to 4
# Details: plain residues with an end cap or a label only (N-terminal biotin on a linker: ado-ado)
row,Binder,pKd
1,"MHIQEKGFHV [EPHA6, Q9UF33]",below the threshold

# Biological target: TJP1_2, Q07157
# Sequence (Q07157 181-274): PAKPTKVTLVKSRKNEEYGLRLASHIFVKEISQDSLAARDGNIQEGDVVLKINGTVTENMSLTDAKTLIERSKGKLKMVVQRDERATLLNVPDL
# Assay: holdup assay
# Parameters: key: below the threshold = too weak to quantify, mostly under pKd 3.1 to 4
# Details: plain residues with an end cap or a label only (N-terminal biotin on a linker: ado-ado)
row,Binder,pKd
1,"MHIQEKGFHV [EPHA6, Q9UF33]",3.52

# Biological target: T6, MPP6, Q9NZW5
# T6 sequence (Q9NZW5 125-219, limits assumed, looked up): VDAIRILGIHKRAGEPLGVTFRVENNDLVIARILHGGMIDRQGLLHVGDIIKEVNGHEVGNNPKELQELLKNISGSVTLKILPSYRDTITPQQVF
# Assay: holdup assay
# Parameters: key: below the threshold = too weak to quantify, mostly under pKd 3.1 to 4
# Details: plain residues with an end cap or a label only (N-terminal biotin on a linker: ado-ado)
row,Binder,pKd
1,"MHIQEKGFHV [EPHA6, Q9UF33]",below the threshold

# Biological target: CASK, O14936
# Sequence (O14936 487-570): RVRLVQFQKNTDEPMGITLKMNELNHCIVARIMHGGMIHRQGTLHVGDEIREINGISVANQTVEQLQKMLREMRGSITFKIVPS
# Assay: holdup assay
# Parameters: key: below the threshold = too weak to quantify, mostly under pKd 3.1 to 4
# Details: plain residues with an end cap or a label only (N-terminal biotin on a linker: ado-ado)
row,Binder,pKd
1,"MHIQEKGFHV [EPHA6, Q9UF33]",below the threshold

# Biological target: T7, APBA2_1, Q99767
# T7 sequence (Q99767 563-664, limits assumed, looked up): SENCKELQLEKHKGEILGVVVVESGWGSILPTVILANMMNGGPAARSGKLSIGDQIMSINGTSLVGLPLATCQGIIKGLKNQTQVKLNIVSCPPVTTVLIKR
# Assay: holdup assay
# Parameters: key: below the threshold = too weak to quantify, mostly under pKd 3.1 to 4
# Details: plain residues with an end cap or a label only (N-terminal biotin on a linker: ado-ado)
row,Binder,pKd
1,"MHIQEKGFHV [EPHA6, Q9UF33]",below the threshold

# Biological target: T8, SNTG1, Q9NSN8
# T8 sequence (Q9NSN8 52-150, limits assumed, looked up): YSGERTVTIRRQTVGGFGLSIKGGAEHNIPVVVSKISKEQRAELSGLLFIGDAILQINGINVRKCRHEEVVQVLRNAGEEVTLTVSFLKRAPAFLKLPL
# Assay: holdup assay
# Parameters: key: below the threshold = too weak to quantify, mostly under pKd 3.1 to 4
# Details: plain residues with an end cap or a label only (N-terminal biotin on a linker: ado-ado)
row,Binder,pKd
1,"MHIQEKGFHV [EPHA6, Q9UF33]",below the threshold

# Biological target: T9, NHERF3_4, Q5T2W1
# T9 sequence (Q5T2W1 373-468, limits assumed, looked up): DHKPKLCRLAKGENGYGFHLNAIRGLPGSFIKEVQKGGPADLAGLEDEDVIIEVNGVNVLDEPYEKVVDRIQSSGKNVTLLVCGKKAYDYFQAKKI
# Assay: holdup assay
# Parameters: key: below the threshold = too weak to quantify, mostly under pKd 3.1 to 4
# Details: plain residues with an end cap or a label only (N-terminal biotin on a linker: ado-ado)
row,Binder,pKd
1,"MHIQEKGFHV [EPHA6, Q9UF33]",below the threshold

# Biological target: T10, HTRA3, P83110
# T10 sequence (P83110 354-453, limits assumed, looked up): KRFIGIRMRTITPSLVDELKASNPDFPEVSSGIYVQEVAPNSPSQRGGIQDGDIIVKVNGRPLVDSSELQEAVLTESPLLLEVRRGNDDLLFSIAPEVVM
# Assay: holdup assay
# Parameters: key: below the threshold = too weak to quantify, mostly under pKd 3.1 to 4
# Details: plain residues with an end cap or a label only (N-terminal biotin on a linker: ado-ado)
row,Binder,pKd
1,"MHIQEKGFHV [EPHA6, Q9UF33]",3.61

# Biological target: GRIP2_7, Q9C0E4
# Sequence (Q9C0E4 934-1023): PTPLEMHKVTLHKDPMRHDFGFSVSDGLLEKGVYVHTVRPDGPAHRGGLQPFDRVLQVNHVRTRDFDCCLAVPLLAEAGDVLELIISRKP
# Assay: holdup assay
# Parameters: key: below the threshold = too weak to quantify, mostly under pKd 3.1 to 4
# Details: plain residues with an end cap or a label only (N-terminal biotin on a linker: ado-ado)
row,Binder,pKd
1,"MHIQEKGFHV [EPHA6, Q9UF33]",3.93

# Biological target: T11, TX1BP3, O14907
# T11 sequence (O14907 10-122, limits assumed, looked up): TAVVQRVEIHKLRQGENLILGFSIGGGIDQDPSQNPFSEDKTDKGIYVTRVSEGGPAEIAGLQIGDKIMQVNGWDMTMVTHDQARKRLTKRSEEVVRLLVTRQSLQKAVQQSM
# Assay: holdup assay
# Parameters: key: below the threshold = too weak to quantify, mostly under pKd 3.1 to 4
# Details: plain residues with an end cap or a label only (N-terminal biotin on a linker: ado-ado)
row,Binder,pKd
1,"MHIQEKGFHV [EPHA6, Q9UF33]",below the threshold

# Biological target: T12, PDZD7_3, Q9H5P4
# T12 sequence (Q9H5P4 857-944, limits assumed, looked up): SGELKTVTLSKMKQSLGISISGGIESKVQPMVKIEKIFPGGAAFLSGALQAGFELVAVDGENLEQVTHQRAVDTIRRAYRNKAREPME
# Assay: holdup assay
# Parameters: key: below the threshold = too weak to quantify, mostly under pKd 3.1 to 4
# Details: plain residues with an end cap or a label only (N-terminal biotin on a linker: ado-ado)
row,Binder,pKd
1,"MHIQEKGFHV [EPHA6, Q9UF33]",below the threshold

# Biological target: FRMPD2_1, Q68DX3
# Sequence (Q68DX3 770-861): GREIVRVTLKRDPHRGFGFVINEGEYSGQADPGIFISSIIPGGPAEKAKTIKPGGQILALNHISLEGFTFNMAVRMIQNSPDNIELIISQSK
# Assay: holdup assay
# Parameters: key: below the threshold = too weak to quantify, mostly under pKd 3.1 to 4
# Details: plain residues with an end cap or a label only (N-terminal biotin on a linker: ado-ado)
row,Binder,pKd
1,"MHIQEKGFHV [EPHA6, Q9UF33]",below the threshold

# Biological target: T13, ARHGEF11, O15085
# T13 sequence (O15085 42-136, limits assumed, looked up): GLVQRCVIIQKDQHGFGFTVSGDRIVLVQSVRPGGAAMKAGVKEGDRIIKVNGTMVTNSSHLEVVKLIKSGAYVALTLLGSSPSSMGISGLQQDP
# Assay: holdup assay
# Parameters: key: below the threshold = too weak to quantify, mostly under pKd 3.1 to 4
# Details: plain residues with an end cap or a label only (N-terminal biotin on a linker: ado-ado)
row,Binder,pKd
1,"MHIQEKGFHV [EPHA6, Q9UF33]",below the threshold

# Biological target: T14, APBA3_1, O96018
# T14 sequence (O96018 389-490, limits assumed, looked up): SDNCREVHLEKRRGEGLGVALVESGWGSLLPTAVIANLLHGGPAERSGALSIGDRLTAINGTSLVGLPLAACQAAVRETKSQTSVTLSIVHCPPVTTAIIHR
# Assay: holdup assay
# Parameters: key: below the threshold = too weak to quantify, mostly under pKd 3.1 to 4
# Details: plain residues with an end cap or a label only (N-terminal biotin on a linker: ado-ado)
row,Binder,pKd
1,"MHIQEKGFHV [EPHA6, Q9UF33]",below the threshold

# Biological target: T15, TJP3_3, O95049
# T15 sequence (O95049 375-456, limits assumed, looked up): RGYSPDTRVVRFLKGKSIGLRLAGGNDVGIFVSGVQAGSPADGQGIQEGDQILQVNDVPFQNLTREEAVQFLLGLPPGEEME
# Assay: holdup assay
# Parameters: key: below the threshold = too weak to quantify, mostly under pKd 3.1 to 4
# Details: plain residues with an end cap or a label only (N-terminal biotin on a linker: ado-ado)
row,Binder,pKd
1,"MHIQEKGFHV [EPHA6, Q9UF33]",below the threshold
